From patent US20250388640A1 (SYNTHEKINE, published 2025)

Columns and labels:
[1] = biological target: T1, hIL-12 receptor signaling complex (hIL-12Rβ1 and hIL-12Rβ2) (human, UniProt P42701 24-662; Q99665 24-862); assay: cell-based or functional assay
[2] = biological target: T1, hIL-12 receptor signaling complex …; assay: cell-based or functional assay; remark: listed apart in the source

T1 sequence (Q99665 24-862, chain 2 of 2, other chains not shown): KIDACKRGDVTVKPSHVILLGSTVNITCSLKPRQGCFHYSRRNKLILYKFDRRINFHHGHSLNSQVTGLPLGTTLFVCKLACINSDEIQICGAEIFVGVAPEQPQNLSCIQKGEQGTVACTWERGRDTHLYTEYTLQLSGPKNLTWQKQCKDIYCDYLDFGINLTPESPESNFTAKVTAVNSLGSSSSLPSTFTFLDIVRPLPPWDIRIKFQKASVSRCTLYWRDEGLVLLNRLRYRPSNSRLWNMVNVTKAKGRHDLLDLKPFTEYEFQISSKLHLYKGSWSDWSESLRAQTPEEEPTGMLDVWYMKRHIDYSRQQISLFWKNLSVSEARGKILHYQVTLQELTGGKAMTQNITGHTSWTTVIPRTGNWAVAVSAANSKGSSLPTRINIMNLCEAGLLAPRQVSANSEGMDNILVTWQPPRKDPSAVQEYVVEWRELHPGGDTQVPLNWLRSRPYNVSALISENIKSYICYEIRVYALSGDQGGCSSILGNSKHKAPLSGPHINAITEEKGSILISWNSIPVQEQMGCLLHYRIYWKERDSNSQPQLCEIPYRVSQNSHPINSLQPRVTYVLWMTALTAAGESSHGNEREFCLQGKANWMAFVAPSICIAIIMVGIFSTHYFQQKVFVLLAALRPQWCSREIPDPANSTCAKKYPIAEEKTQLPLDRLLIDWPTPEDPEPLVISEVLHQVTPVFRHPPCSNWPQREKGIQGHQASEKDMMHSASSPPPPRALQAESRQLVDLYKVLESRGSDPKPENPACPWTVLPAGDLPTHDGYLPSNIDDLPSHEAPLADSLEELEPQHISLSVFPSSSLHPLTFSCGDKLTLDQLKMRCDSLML

Row | Binder | IFNy [gMFI] EC50, CD8+ T Cells [1] | IFNy [gMFI] EC50, CD56hi NK Cells [1] | IFNy [gMFI] Emax, CD8+ T Cells [1] | IFNy [gMFI] Emax, CD56hi NK Cells [1] | IFNy [%+] EC50, CD8+ T Cells [2] | IFNy [%+] EC50, CD56hi NK Cells [2] | IFNy [%+] Emax, CD8+ T Cells [2] | IFNy [%+] Emax, CD56hi NK Cells [2]
1 | human IL12 mutein, hIL-12p40 E81R, F82A with hIL-12p35-8X His (ligand) chain 1: IWELKKDVYVVELDWYPDAPGEMVVLTCDTPEEDGITWTLDQSSEVLGSGKTLTIQVKRAGDAGQYTCHKGGEVLSHSLLLLHKKEDGIWSTDILKDQKEPKNKTFLRCEAKNYSGRFTCWWLTTISTDLTFSVKSSRGSSDPQGVTCGAATLSAERVRGDNKEYEYSVECQEDSACPAAEESLPIEVMVDAVHKLKYENYTSSFFIRDIIKPDPPKNLQLKPLKNSRQVEVSWEYPDTWSTPHSYFSLTFCVQVQGKSKREKKDRVFTDKTSATVICRKNASISVRAQDRYYSSSWSEWASVPCS chain 2: RNLPVATPDPGMFPCLHHSQNLLRAVSNMLQKARQTLEFYPCTSEEIDHEDITKDKTSTVEACLPLELTKNESCLNSRETSFITNGSCLASRKTSFMMALCLSSIYEDLKMYQVEFKTMNAKLLMDPKRQIFLDQNMLAVIDELMQALNFNSETVPQKSSLEEPDFYKTKIKLCILLHAFRIRAVTIDRVMSYLNASGSHHHHHHHH | 0.35 nM | 0.75 nM | 16300 gMFI | 156000 gMFI | 0.178 nM | 0.036 nM | 81.6 %+ | 94 %+
2 | human IL12 mutein, hIL-12p40 E81V, F82A with hIL-12p35-8X His (ligand) chain 1: IWELKKDVYVVELDWYPDAPGEMVVLTCDTPEEDGITWTLDQSSEVLGSGKTLTIQVKVAGDAGQYTCHKGGEVLSHSLLLLHKKEDGIWSTDILKDQKEPKNKTFLRCEAKNYSGRFTCWWLTTISTDLTFSVKSSRGSSDPQGVTCGAATLSAERVRGDNKEYEYSVECQEDSACPAAEESLPIEVMVDAVHKLKYENYTSSFFIRDIIKPDPPKNLQLKPLKNSRQVEVSWEYPDTWSTPHSYFSLTFCVQVQGKSKREKKDRVFTDKTSATVICRKNASISVRAQDRYYSSSWSEWASVPCS chain 2: RNLPVATPDPGMFPCLHHSQNLLRAVSNMLQKARQTLEFYPCTSEEIDHEDITKDKTSTVEACLPLELTKNESCLNSRETSFITNGSCLASRKTSFMMALCLSSIYEDLKMYQVEFKTMNAKLLMDPKRQIFLDQNMLAVIDELMQALNFNSETVPQKSSLEEPDFYKTKIKLCILLHAFRIRAVTIDRVMSYLNASGSHHHHHHHH | 0.38 nM | 0.5 nM | 10600 gMFI | 194000 gMFI | 0.226 nM | 0.026 nM | 67.4 %+ | 94.6 %+
3 | human IL12 mutein, hIL-12p40 E81I, F82A with hIL-12p35-8X His (ligand) chain 1: IWELKKDVYVVELDWYPDAPGEMVVLTCDTPEEDGITWTLDQSSEVLGSGKTLTIQVKIAGDAGQYTCHKGGEVLSHSLLLLHKKEDGIWSTDILKDQKEPKNKTFLRCEAKNYSGRFTCWWLTTISTDLTFSVKSSRGSSDPQGVTCGAATLSAERVRGDNKEYEYSVECQEDSACPAAEESLPIEVMVDAVHKLKYENYTSSFFIRDIIKPDPPKNLQLKPLKNSRQVEVSWEYPDTWSTPHSYFSLTFCVQVQGKSKREKKDRVFTDKTSATVICRKNASISVRAQDRYYSSSWSEWASVPCS chain 2: RNLPVATPDPGMFPCLHHSQNLLRAVSNMLQKARQTLEFYPCTSEEIDHEDITKDKTSTVEACLPLELTKNESCLNSRETSFITNGSCLASRKTSFMMALCLSSIYEDLKMYQVEFKTMNAKLLMDPKRQIFLDQNMLAVIDELMQALNFNSETVPQKSSLEEPDFYKTKIKLCILLHAFRIRAVTIDRVMSYLNASGSHHHHHHHH | 0.55 nM | 1.48 nM | 11700 gMFI | 313000 gMFI | 0.37 nM | 0.061 nM | 68.3 %+ | 93.7 %+
4 | human IL12 mutein, hIL-12p40 E81K, F82A with hIL-12p35-8X His (ligand) chain 1: IWELKKDVYVVELDWYPDAPGEMVVLTCDTPEEDGITWTLDQSSEVLGSGKTLTIQVKKAGDAGQYTCHKGGEVLSHSLLLLHKKEDGIWSTDILKDQKEPKNKTFLRCEAKNYSGRFTCWWLTTISTDLTFSVKSSRGSSDPQGVTCGAATLSAERVRGDNKEYEYSVECQEDSACPAAEESLPIEVMVDAVHKLKYENYTSSFFIRDIIKPDPPKNLQLKPLKNSRQVEVSWEYPDTWSTPHSYFSLTFCVQVQGKSKREKKDRVFTDKTSATVICRKNASISVRAQDRYYSSSWSEWASVPCS chain 2: RNLPVATPDPGMFPCLHHSQNLLRAVSNMLQKARQTLEFYPCTSEEIDHEDITKDKTSTVEACLPLELTKNESCLNSRETSFITNGSCLASRKTSFMMALCLSSIYEDLKMYQVEFKTMNAKLLMDPKRQIFLDQNMLAVIDELMQALNFNSETVPQKSSLEEPDFYKTKIKLCILLHAFRIRAVTIDRVMSYLNASGSHHHHHHHH | 0.51 nM | 0.62 nM | 13200 gMFI | 123000 gMFI | 0.305 nM | 0.046 nM | 78.5 %+ | 93.7 %+
5 | human IL12 mutein, hIL-12p40 E81L, F82A with hIL-12p35-8X His (ligand) chain 1: IWELKKDVYVVELDWYPDAPGEMVVLTCDTPEEDGITWTLDQSSEVLGSGKTLTIQVKLAGDAGQYTCHKGGEVLSHSLLLLHKKEDGIWSTDILKDQKEPKNKTFLRCEAKNYSGRFTCWWLTTISTDLTFSVKSSRGSSDPQGVTCGAATLSAERVRGDNKEYEYSVECQEDSACPAAEESLPIEVMVDAVHKLKYENYTSSFFIRDIIKPDPPKNLQLKPLKNSRQVEVSWEYPDTWSTPHSYFSLTFCVQVQGKSKREKKDRVFTDKTSATVICRKNASISVRAQDRYYSSSWSEWASVPCS chain 2: RNLPVATPDPGMFPCLHHSQNLLRAVSNMLQKARQTLEFYPCTSEEIDHEDITKDKTSTVEACLPLELTKNESCLNSRETSFITNGSCLASRKTSFMMALCLSSIYEDLKMYQVEFKTMNAKLLMDPKRQIFLDQNMLAVIDELMQALNFNSETVPQKSSLEEPDFYKTKIKLCILLHAFRIRAVTIDRVMSYLNASGSHHHHHHHH | 0.39 nM | 0.47 nM | 11500 gMFI | 223000 gMFI | 0.185 nM | 0.003 nM | 68 %+ | 94.8 %+
